According to PMC11565396 (Journal of Lipid Research, 2024):

Target: the molecule itself
Assay: SEC

B1: 6xHis-VP40 (recombinant full-length EBOV VP40, dimer) (natural protein)
chain: MRRVILPTAPPEYMEAIYPVRSNSTIARGGNSNTGFLTPESVNGDTPSNPLRPIADDTIDHASHTPGSVSSAFILEAMVNVISGPKVLMKQIPIWLPLGVADQKTYSFDSTTAAIMLASYTITHFGKATNPLVRVNRLGPGIPDHPLRLLRIGNQAFLQEFVLPPVQLPQYFTFDLTALKLITQPLPAATWTDDTPTGSNGALRPGISFHPKLRPILLPNKSGKKGNSADLTSPEKIQAIMTSLQDFKIVPIDPTKNIMGIEVPETLVHKLTGKKVTSKNGQPIIPVLLPKYIGLDPVAPGDLTMVITQDCDTCHSPASLPAVIEK
binding result: binds
